Experiments:
[1] = target: T1, Recombinantly expressed fused calprotectin (His6-linker-S100A9-linker-S100A8), product code B-RCAL, BÜHLMANN Laboratories AG (human), P06702; test: fluorescence polarization; details: modification not given
T1 chain: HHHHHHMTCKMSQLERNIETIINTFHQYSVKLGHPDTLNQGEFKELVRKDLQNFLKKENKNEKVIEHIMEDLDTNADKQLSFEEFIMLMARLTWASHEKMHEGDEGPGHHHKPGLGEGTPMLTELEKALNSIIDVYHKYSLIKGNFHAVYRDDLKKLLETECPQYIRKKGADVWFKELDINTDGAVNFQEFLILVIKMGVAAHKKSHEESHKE

[2] = target: T1, Recombinantly expressed fused …; test: SPR; details: modification not given

| Binder | Kd [1] [nM] | Kd [2] [nM] |
| --- | --- | --- |
| RCPECVAFPMFQCHWYCA | 31 |  |
| RCPACVAFPMFQCHWYCG | 26 |  |
| RSPESAAFPMFQSHWYSG | 39 |  |
| RCPECVAIPMFQCHWYCG [F8 Ile] |  | > 10000 |
| RCAECVAFPMFQCHWYCG | 28 |  |
| RCPECVAQPMFQCHWYCG [F8 Gln] |  | > 10000 |
| ACPECVAFPMFQCHWYCG | 32 |  |
| RSPASVAFPMFQSHWYSG | 26 |  |
| RSPESVAFPMFQSHAYSG | 24 |  |
| RCPECVAFPMFQCHWACG [Y16 L-Ala] |  | > 10000 |
| RCPECVGFPMFQCHWYCG | 29 |  |
| RSPESVGFPMFQSHWYSG | 29 |  |
| RCPECVAEPMFQCHWYCG [F8 Glu] |  | > 10000 |
| RSPESVAFAMFQSHWYSG | 30 |  |
| RCPECVAFPMKQCHWYCG [F11 Lys] |  | > 10000 |
| RCPECVAFPMFACHWYCG | 27 |  |
| RCPECVAFPMIQCHWYCG [F11 Ile] |  | > 10000 |
| ASPESVAFPMFQSHWYSG | 32 |  |
| RCPECVAFPMFQCHAYCG | 24 |  |
| RCPECVAFPMEQCHWYCG [F11 Glu] |  | > 10000 |
| RCPECVAFPMFQCAWYCG [H14 L-Ala] |  | > 10000 |
| RCPECVAFPMAQCHWYCG [F11 L-Ala] |  | > 10000 |
| RSAESVAFPMFQSHWYSG | 28 |  |
| RCPECVAYPMFQCHWYCG [F8 Tyr] |  | > 10000 |
| RSPESVAFPMFASHWYSG | 27 |  |
| RCPECVAAPMFQCHWYCG [F8 L-Ala] |  | > 10000 |
| RCPECVAFPMQQCHWYCG [F11 Gln] |  | > 10000 |
| RCPECVAFAMFQCHWYCG | 30 |  |
| RSPESVAFPMFQSHWYSA | 31 |  |
| RCPECAAFPMFQCHWYCG | 39 |  |

Source: patent US20250326807A1, “CALPROTECTIN BINDING PEPTIDES” (Buehlmann Laboratories AG, priority 2022, published 2025)
